From patent US20240392013A1 (STELEXIS THERAPEUTICS, published 2024)

Experiments:
[1] = target: T1, IL1RAP on HEK-Blue IL1β / HEK-Blue IL33 reporter cells (UniProt Q9NPH3 21-570, limits assumed); experiment: cell-based or functional assay
T1 sequence (looked up): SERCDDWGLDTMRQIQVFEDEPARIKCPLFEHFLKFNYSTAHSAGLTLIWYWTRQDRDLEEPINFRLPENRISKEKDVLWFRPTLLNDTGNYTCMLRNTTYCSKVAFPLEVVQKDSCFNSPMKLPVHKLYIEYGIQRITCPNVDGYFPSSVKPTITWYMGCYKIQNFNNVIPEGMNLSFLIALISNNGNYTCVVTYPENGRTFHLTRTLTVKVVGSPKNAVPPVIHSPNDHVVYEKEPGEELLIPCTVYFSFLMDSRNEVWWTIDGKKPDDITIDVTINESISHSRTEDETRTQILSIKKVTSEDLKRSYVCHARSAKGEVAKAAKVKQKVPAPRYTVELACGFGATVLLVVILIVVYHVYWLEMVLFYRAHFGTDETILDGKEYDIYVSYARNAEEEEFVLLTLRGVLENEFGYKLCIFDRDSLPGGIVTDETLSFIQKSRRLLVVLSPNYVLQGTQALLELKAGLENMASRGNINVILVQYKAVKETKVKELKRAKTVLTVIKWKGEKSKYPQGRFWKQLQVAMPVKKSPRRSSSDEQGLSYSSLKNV

[2] = target: T2, cyIL1RAP-His (Lake Pharma) (cynomolgus monkey, UniProt A0A2K5X5J5 21-367); experiment: Octet BLI; mAb captured on anti-mouse IgG Fc sensor; cyIL1RAP-His analyte
T2 construct: Bought protein (Lake Pharma, lot 16205819371); also called cynomolgus IL1RAP; monkey IL1RAP; not shown: His tag
T2 sequence: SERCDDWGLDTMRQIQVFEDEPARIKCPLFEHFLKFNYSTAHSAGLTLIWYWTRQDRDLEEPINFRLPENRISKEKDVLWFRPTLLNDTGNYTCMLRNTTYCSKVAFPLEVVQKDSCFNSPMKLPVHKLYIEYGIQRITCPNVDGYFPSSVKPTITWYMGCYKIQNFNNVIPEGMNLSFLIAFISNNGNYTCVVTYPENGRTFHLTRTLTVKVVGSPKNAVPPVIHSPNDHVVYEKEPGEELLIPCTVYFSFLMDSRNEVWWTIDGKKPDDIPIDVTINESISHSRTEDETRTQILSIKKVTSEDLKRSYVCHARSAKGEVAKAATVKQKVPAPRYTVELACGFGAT
Procedure: (§1) Antibodies were diluted in kinetics buffer (0.1% BSA, 0.02% Tween-20 and 0.05% NaN₃ in PBS) and loaded onto 16 channel anti-mouse IgG Fc capture sensors (AMC, Cat #2001073; Sartorius, Göttingen, Germany). Human, huIL1RAP-His (Sino Biological, lot: MB08MA1301), and monkey, cyIL1RAP-His (Lake Pharma, NY, USA; lot:16205819371) proteins were titrated starting from the highest concentration of 100 nM and followed by 50 nM and 25 nM. Purified antibodies were loaded at 5 μg/ml in kinetics buffer. The experimental parameters selected to determine the kinetic constants were Baseline for 60 s, Loading of antibody to sensor for 180 s, Association of analyte to antibody for 120 s, Dissociation for 1200 s and Regeneration in 10 mM Glycine pH 1.7 for 4×30 s.
(§2) Regeneration cycle tracking was selected for 12 cycles. Binding to human and cynomolgus IL1RAP was measured and KD (M) kinetics were calculated. Also, the disassociation rate (Kdis) (1/s) and association rate (Kon) (1/Ms) kinetics were calculated (data not shown).

[3] = target: T1, IL1RAP on HEK-Blue IL1β / HEK-Blue IL33 …; experiment: cell-based or functional assay; remark: listed apart in the source
[4] = target: T3, recombinant human IL1RAP protein, extracellular domain His-tagged (Sino Biological, Cat #10121-H08H) (human, UniProt Q9NPH3 21-367); experiment: Octet BLI; mAb captured on anti-mouse IgG Fc sensor; huIL1RAP-His analyte
T3 construct: extracellular domain; Bought protein; The Octet analyte is printed as huIL1RAP-His (Sino Biological, lot MB08MA1301) without a catalogue number; also called huIL1RAP-His; hIL1RAP; not shown: His tag
T3 sequence (looked up): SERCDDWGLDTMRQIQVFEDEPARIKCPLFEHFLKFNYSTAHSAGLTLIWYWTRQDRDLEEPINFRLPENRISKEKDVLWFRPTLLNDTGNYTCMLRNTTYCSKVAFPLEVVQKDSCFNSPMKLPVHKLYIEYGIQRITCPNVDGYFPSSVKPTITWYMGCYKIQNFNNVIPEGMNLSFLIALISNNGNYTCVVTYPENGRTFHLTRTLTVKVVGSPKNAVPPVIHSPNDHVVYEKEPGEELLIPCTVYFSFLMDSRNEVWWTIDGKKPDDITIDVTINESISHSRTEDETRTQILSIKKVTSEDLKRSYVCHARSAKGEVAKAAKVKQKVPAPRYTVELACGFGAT
Procedure: as §1, §2

[5] = target: T4, recombinant mouse IL1RAP protein (Sino Biological, Cat #52657-M08H) (mouse, UniProt Q61730 21-359); experiment: cell-free ELISA, mouse IL1RAP coated; data not shown
T4 construct: Bought protein
T4 sequence (looked up): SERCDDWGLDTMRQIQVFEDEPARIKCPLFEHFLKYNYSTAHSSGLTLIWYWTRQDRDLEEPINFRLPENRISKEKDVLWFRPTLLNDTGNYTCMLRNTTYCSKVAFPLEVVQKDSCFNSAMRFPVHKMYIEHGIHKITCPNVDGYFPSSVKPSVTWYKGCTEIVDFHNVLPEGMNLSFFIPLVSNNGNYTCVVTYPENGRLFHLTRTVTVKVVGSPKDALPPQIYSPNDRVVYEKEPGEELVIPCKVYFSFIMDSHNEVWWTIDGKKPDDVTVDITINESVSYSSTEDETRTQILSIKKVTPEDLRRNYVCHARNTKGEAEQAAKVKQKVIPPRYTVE
Procedure: Recombinant human or mouse IL1RAP proteins (Sino Biological, Beijing, China; Cat #10121-H08H and Sino Biological, Cat #52657-M08H respectively) were diluted in PBS, pH 7.4 at concentration of 1 μg/ml, coated on high-binding 384-well clear plates and incubated overnight at 4° C. Following, plates were washed 3× with 0.05% Tween-20 in PBS, pH 7.5 and then blocked with 1% BSA in PBS for 1 hour at room temperature. After 3× washes, wells were incubated with each antibody at the highest concentration of 100 nM followed by seven serial half log dilutions (in 1% BSA and 0.05% Tween-20 in PBS) for 1 hour at room temperature. Plates were then washed 3× and incubated with […] detection antibody (Medna, TX, USA; Cat #D8212, 0.5 μg/ml diluted in 0.02% Tween-20 in PBS). After 5× washes, Supersignal ELISA Pico substrate (Thermofisher, MA, USA; Cat #37069) was applied to wells and chemiluminescent signal was read on Sprectramax L for 200 ms/well. Similarly, detection with specific κ and λ antibodies was conducted to define light chain isotyping.

B1: STLX2029 (antibody, V domains shown)
VH: QVQLLQSGAEVKKPGSSVKVSCKASGGTFSIYAIDWVRQAPGQGLEWMGGIIPIFGTANSAQKFQGRVTITADKSTSTAYMELSSLRSEDTAVYYCARNGATSDAFDMWGQGTMVTVSS
VL: EIVLTQSPGTLSLSPGERATLSCRASLSVSSNYLAWFQQRPGQAPRLLIYGVSRRATGIPDRFSGSGSGTDFTLTISRLEPEDFAVYYCQQYGSSPLTFGGGTKVEIK
notes: Purified from hybridoma of immunized Alivamab mice; intact IgG; captured on anti-mouse IgG Fc sensors in Octet; kappa light chain; also called 74804_29D13A
- IC50, HEK-BlueIL1β NFκB Reporter Assay [1]: 1.85e-09 M (implied; unit not printed)
- Max % Inhibition at 200 nM, HEK-BlueIL1β NFκB Reporter Assay [1]: 99%
- Kd [2]: 1.97 nM
- Response [2]: 0.327
- koff [2]: 0.00065 s⁻¹
- kon [2]: 330000 M⁻¹ s⁻¹
- IC50, HEK-BlueIL33 NFκB Reporter Assay [3]: 8.75e-09 M (implied; unit not printed)
- Max % Inhibition at 200 nM, HEK-BlueIL33 NFκB Reporter Assay [3]: 86%
- Kd [4]: 1.07 nM
- Response [4]: 0.291
- koff [4]: 0.000361 s⁻¹
- kon [4]: 336000 M⁻¹ s⁻¹
- binding result [5]: no binding (tested: 100 nM)

B2: STLX2007 (antibody, V domains shown)
VH: QVQLLQSGAEVKKPGSSVKVSCRASGGTFSIYAIDWVRQAPGQGLEWMGGIIPISGTENSAQNFQDRITITADKSTNTAYMELSSLRSEDTAVYYCARNGATSDAFDIWGQGTMVTVSS
VL: EIVLTQSPGTLSLSPGERATLSCRASLSVSSNYLAWFQQRPGQAPRLLIYGVSRRATGIPDRFSGSGSGTDFTLTISRLEPEDFAVYYCQQYGSSPLTFGGGTKVEIK
notes: Purified from hybridoma of immunized Alivamab mice; intact IgG; captured on anti-mouse IgG Fc sensors in Octet; kappa light chain; also called 74804_07K10A
- IC50, HEK-BlueIL1β NFκB Reporter Assay [1]: 3.19e-09 M (implied; unit not printed)
- Max % Inhibition at 200 nM, HEK-BlueIL1β NFκB Reporter Assay [1]: 100%
- Kd [2]: 0.751 nM
- Response [2]: 0.273
- koff [2]: 0.000283 s⁻¹
- kon [2]: 377000 M⁻¹ s⁻¹
- IC50, HEK-BlueIL33 NFκB Reporter Assay [3]: 6.62e-09 M (implied; unit not printed)
- Max % Inhibition at 200 nM, HEK-BlueIL33 NFκB Reporter Assay [3]: 79%
- Kd [4]: 0.596 nM
- Response [4]: 0.247
- koff [4]: 0.000234 s⁻¹
- kon [4]: 392000 M⁻¹ s⁻¹
- binding result [5]: no binding (tested: 100 nM)

B3: STLX2051 (antibody, V domains shown)
VH: QVQLLQSGAEVKKPGSSVKVSCKASGGTFNIYAIDWVRQAPGQGLEWMGGIIPIFGTANSAQKFQGRVTITADKSTNTAYMELSSLRSEDTAVYYCARNGATSDAFDIWGQGTMVTVSS
VL: EIVLTQSPGTLSLSPGERATLSCRASQSVSSNYLAWFQQRPGQAPRLLIYGVSRRATGIPDRFSGSGSGTDFTLTISRLEPEDFAVYYCQQYGSSPLTFGGGTKVEIK
notes: Purified from hybridoma of immunized Alivamab mice; intact IgG; captured on anti-mouse IgG Fc sensors in Octet; kappa light chain; also called 74804_51C10A
- IC50, HEK-BlueIL1β NFκB Reporter Assay [1]: 2.5e-09 M (implied; unit not printed)
- Max % Inhibition at 200 nM, HEK-BlueIL1β NFκB Reporter Assay [1]: 99%
- Kd [2]: 1.41 nM
- Response [2]: 0.265
- koff [2]: 0.000459 s⁻¹
- kon [2]: 326000 M⁻¹ s⁻¹
- IC50, HEK-BlueIL33 NFκB Reporter Assay [3]: 1.3e-08 M (implied; unit not printed)
- Max % Inhibition at 200 nM, HEK-BlueIL33 NFκB Reporter Assay [3]: 77%
- Kd [4]: 0.875 nM
- Response [4]: 0.237
- koff [4]: 0.000301 s⁻¹
- kon [4]: 344000 M⁻¹ s⁻¹
- binding result [5]: no binding (tested: 100 nM)
